{"source": "patent US7910544B2", "about": "“Conformationally constrained parthyroid hormone (PTH) analogs” (The General Hospital Corporation, priority 2003, dated 2011)", "key": {"P1R-delNt [1]": {"molecular_target": "T1, P1R-delNt (Homo sapiens, UniProt Q03431)", "T1 construct": "expressed in transfected cells; host or cells: COS-7", "T1 sequence (Q03431 with tags, fused parts or gaps limits assumed)": "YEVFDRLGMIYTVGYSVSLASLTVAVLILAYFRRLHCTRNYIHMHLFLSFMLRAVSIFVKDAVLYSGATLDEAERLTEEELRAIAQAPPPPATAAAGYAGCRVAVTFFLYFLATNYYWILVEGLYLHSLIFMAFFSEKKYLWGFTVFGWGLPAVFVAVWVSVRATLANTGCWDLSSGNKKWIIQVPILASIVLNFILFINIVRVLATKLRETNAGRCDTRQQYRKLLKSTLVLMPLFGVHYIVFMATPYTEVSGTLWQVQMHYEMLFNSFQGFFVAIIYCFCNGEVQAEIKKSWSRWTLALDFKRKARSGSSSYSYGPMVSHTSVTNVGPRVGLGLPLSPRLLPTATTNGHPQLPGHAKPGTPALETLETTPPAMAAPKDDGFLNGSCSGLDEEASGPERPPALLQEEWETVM", "assay": "cAMP antagonism assay in COS-7 cells transfected with P1R-delNt", "type": "cell-based", "details": "for antagonism of agonist-induced cAMP response: P1R-delNt, antagonist 1×10−5 M; for N versus J domain selectivity of P1R antagonist: concluded from cAMP antagonism on wild-type P1R and P1R-delNt in COS-7 cells", "method": "(§1) FIG. 8. “N” versus “J” Domain selectivity of P1R Antagonists in COS-7 Cells. cAMP antagonism assays were performed in COS-7 cells transfect with the wild-type P1R (A), or a P1R derivative (P1R-delNt) having most (residues 24-181) of the P1R N domain deleted (B). Cells were treated with the agonist [Aib^1,3,Tyr^34]hpTH(1-34)NH2 ([Aib^1,3]PTH(1-34)), which utilizes both N and J domains for affinity/potency, or with [Ac5c^1, Aib^3, Gln^10,Har^11,Ala^12,Trp^14]PTH(1-14)NH2 ([Ac5c^1]PTH(1-14)), which uses only the J domain for affinity/potency, at the concentrations indicated in the key, so as to elicit half-maximum cAMP responses in the absence of antagonist (none). The analogs PTHrP(5-36) and Deg^1,3,Bpa^2-PTH(1-21) were added at 1×10−5 M, as indicated.\n(§2) Cell Culture. The cell line HKRK-B28 (Shimizu, el al., Biochem. 41: 13224-33 (2002)) was derived from the porcine kidney cell line, LLC-PK1 by stable transfection with plasmid DNA encoding the opossum/rat hybrid P1R and expresses ˜280,000 receptors per cell. The HKRK-B7 cell line was derived from the LLC-PK1 cell line by stable transfection with DNA encoding human P1R. HKRK-B7 cells expresses approximately 950,000 human P1R per cell (Takasu, H., et al., J. Bone Miner. Res. 14: 11-20 (1999)). These cells, as well as COS-7 cells and SaOS-2-B10 cells, are cultured at […] in T-75 flasks ([…]) in Dulbecco's modified Eagle's medium (DMEM) supplemented with fetal bovine serum (10%), penicillin G (20 units/ml), streptomycin sulfate (20 μg/ml) and amphotericin B (0.05 μg/ml) in a humidified atmosphere containing 5% Co2. Stock solutions of EGTA/trypsin and antibiotics are from GIBCO; fetal bovine serum is from Hyclone Laboratories (Logan, Utah). COS-7 cells sub-cultured in 24-well plates are transfected with plasmid DNA (200 ng per well) encoding the wild-type human P1R or truncated human P1R deleted for residues (24-181) (Shimizu, M., et al., J. Biol. Chem. 275: 21836-21843 (2000)) that is purified by cesium chloride/ethidium bromide density gradient centrifugation, and FuGENE 6 transfection reagent (Roche Indianapolis Ind.) according to the manufacturer's recommended procedure. All cells, in 24-well plates, are treated with fresh media and shifted to 33° C. for 12 to 24 h prior to assay.\n(§3) cAMP Stimulation. Stimulation of cells with peptide analogs is performed in 24-well plates. Cells are rinsed with 0.5 mL of binding buffer (50 mM Tris-HCl, 100 mM NaCl, 5 mM KCl, 2 mM CaCl2, 5% heat-inactivated horse serum, 0.5% fetal bovine serum, adjusted to pH 7.5 with HCl) and treated with 200 μL of cAMP assay buffer (Delbecco's modified Eagle's medium containing 2 mM 3-isobutyl-1-methylxanthine, 1 mg/mL bovine serum albumin, 35 mM Hepes-NaOH, pH 7.4) and 100 μL of binding buffer containing varying amounts of peptide analog (final volume=300 μL). The medium is removed after incubation for 30 to 60 minutes at room temperature, and the cells are frozen on dry ice, lysed with 0.5 mL 50 mM HCl, and refrozen ([…]). The cAMP content of the diluted lysate is determined by radioimmunoassay. The EC50 response values are calculated using nonlinear regression (see below).\n“N” versus “J” domain selectivity of P1R antagonists was investigated in COS-7 Cells (FIG. 8). cAMP antagonism assays were performed in COS-7 cells transfect with the wild-type P1R (A), or a P1R derivative (P1R-delNt) having most (residues 24-181) of the P1R N domain deleted (B). Cells were treated with the agonist [Aib^1,3,Tyr^34]hPTH(1-34)NH2 ([Aib^1,3]PTH(1-34)), which utilizes both N and J domains for affinity/potency, or with [Ac5c^1,Aib^3,Gln^10,Har^11,Ala^12,Trp^14]PTH(1-14)NH2 ([Ac5c^1]PTH(1-14)), which uses only the J domain for affinity/potency, at the concentrations indicated in the key, so as to elicit half-maximum cAMP responses in the absence of antagonist (none). The analogs PTHrP(5-36) and Deg^1,3,Bpa^2-PTH(1-21) were added at 1×10−5 M, as indicated."}, "wild-type P1R": {"molecular_target": "T2, wild-type P1R (Homo sapiens, UniProt Q03431)", "T2 construct": "expressed in transfected cells; host or cells: COS-7", "T2 sequence (Q03431 27-593)": "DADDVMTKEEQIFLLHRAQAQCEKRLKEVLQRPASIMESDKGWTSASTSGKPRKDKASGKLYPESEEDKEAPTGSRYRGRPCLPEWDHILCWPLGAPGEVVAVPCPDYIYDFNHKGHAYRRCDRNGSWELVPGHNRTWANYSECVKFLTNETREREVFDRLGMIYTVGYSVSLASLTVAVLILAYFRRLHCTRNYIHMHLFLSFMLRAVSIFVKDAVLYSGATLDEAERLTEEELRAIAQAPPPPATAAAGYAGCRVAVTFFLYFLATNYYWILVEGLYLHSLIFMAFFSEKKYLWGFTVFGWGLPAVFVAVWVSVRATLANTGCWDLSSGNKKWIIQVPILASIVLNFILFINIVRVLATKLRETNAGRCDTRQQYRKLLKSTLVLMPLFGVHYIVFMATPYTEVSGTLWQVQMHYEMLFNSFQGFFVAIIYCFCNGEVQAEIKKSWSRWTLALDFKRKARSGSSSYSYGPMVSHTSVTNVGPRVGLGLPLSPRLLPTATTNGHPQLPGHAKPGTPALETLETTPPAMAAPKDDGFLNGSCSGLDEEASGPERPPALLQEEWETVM", "assay": "cAMP antagonism assay in COS-7 cells transfected with wild-type P1R", "type": "cell-based", "details": "WT receptor; agonist [Ac5c1,Aib3,Gln10,Har11,Ala12,Trp14]PTH(1-14)NH2; antagonist 1×10−5 M; listed as Deg^1,3,Bpa^2-PTH(1-21)", "method": "as §1\nCell Culture. The cell line HKRK-B28 (Shimizu, el al., Biochem. 41: 13224-33 (2002)) was derived from the porcine kidney cell line, LLC-PK1 by stable transfection with plasmid DNA encoding the opossum/rat hybrid P1R and expresses ˜280,000 receptors per cell. The HKRK-B7 cell line was derived from the LLC-PK1 cell line by stable transfection with DNA encoding human P1R. […]\ncAMP Stimulation. […] The cAMP content of the diluted lysate is determined by radioimmunoassay. The EC50 response values are calculated using nonlinear regression (see below). […]"}, "P1R-delNt [2]": {"molecular_target": "T1, P1R-delNt", "assay": "Competitive antagonism on P1R-delNt (shift of agonist dose-response curve, cAMP)", "type": "cell-based", "details": "for shift of agonist dose-response curve: agonist [Aib1,3,Tyr34]hPTH(1-34)NH2, antagonist 1×10−5 M, COS-7/P1R-delNt; for mechanism of inhibition: from shift of [Aib1,3,Tyr34]hPTH(1-34)NH2 dose-response curve", "text": "FIG. 10. Competitive Antagonism on P1R-delNt. COS-7 cells transfected with P1R-delNt were stimulated with varying concentrations of the agonist [Aib^1,3,Tyr^34]hPTH(1-34)NH2 ([Aib^1,3]PTH(1-34)), either in the absence of antagonist or in the presence of an antagonist, [Deg^1,3,Bpa2,M]PTH(1-14) or [Deg^1,3,Bpa^2,M]PTH(1-21) each at 1×10−5 M, as indicated in the figure key.\nas §2, §3\nThe pharmacologic mechanism by which [Deg^1,3,BPA^2,Nle^8,Gln^10,Har^11,Ala^12,Trp^14,Arg^19,Tyr^21]PTH(1-21)NH2 and [Deg^1,3,Bpa^2,Gln^10,Har^11,Ala^12,Trp^14]PTH(1-14)NH2 function as antagonists was investigated in FIG. 10. In this study, the effects of the antagonists at […], on the dose-response curve elicited by the agonist [Aib^1,3,Tyr^34]hPTH(1-34)NH2 were examined in […]."}, "P1R": {"molecular_target": "T3, P1R (Homo sapiens, UniProt Q03431)", "T3 sequence (Q03431 27-593)": "T2 sequence (Q03431 27-593)", "details": "literature (Luck et al. 1999); read-out: cAMP-signaling potency EC50; cited from earlier work"}}, "note": "Non-standard residues stand in square brackets, D forms with d. No end group written: not given here. Bpa = N[C@@H](Cc1ccc(C(=O)c2ccccc2)cc1)C(=O)O; hArg = N=C(N)NCCCC[C@H](N)C(=O)O; Nle = CCCC[C@H](N)C(=O)O; Deg = CCC(N)(CC)C(=O)O", "data": [{"substance": "DegBpaDegGluIleGlnLeuNleHisGlnHarAlaLysTrpLeuAlaSerValArgArgTyrNH2 ([Deg][Bpa][Deg]EIQL[Nle]HQ[hArg]AKWLASVRRY-NH2; N-terminus assumed; SMILES CCCC[C@H](NC(=O)[C@H](CC(C)C)NC(=O)[C@H](CCC(N)=O)NC(=O)[C@@H](NC(=O)[C@H](CCC(=O)O)NC(=O)C(CC)(CC)NC(=O)[C@H](Cc1ccc(C(=O)c2ccccc2)cc1)NC(=O)C(N)(CC)CC)[C@@H](C)CC)C(=O)N[C@@H](Cc1c[nH]cn1)C(=O)N[C@@H](CCC(N)=O)C(=O)N[C@@H](CCCCNC(=N)N)C(=O)N[C@@H](C)C(=O)N[C@@H](CCCCN)C(=O)N[C@@H](Cc1c[nH]c2ccccc12)C(=O)N[C@@H](CC(C)C)C(=O)N[C@@H](C)C(=O)N[C@@H](CO)C(=O)N[C@H](C(=O)N[C@@H](CCCNC(=N)N)C(=O)N[C@@H](CCCNC(=N)N)C(=O)N[C@@H](Cc1ccc(O)cc1)C(N)=O)C(C)C)", "values": [{"measurement": "antagonism of agonist-induced cAMP response", "setting": "P1R-delNt [1]; agonist [Ac5c1,Aib3,Gln10,Har11,Ala12,Trp14]PTH(1-14)NH2", "result": "strongly inhibited"}, {"measurement": "antagonism of agonist-induced cAMP response", "setting": "P1R-delNt [1]; agonist [Ac5c1,Aib3,Gln10,Har11,Ala12,Trp14]PTH(1-14)NH2, listed as Deg^1,3,Bpa^2-PTH(1-21)", "result": "antagonizes either agonist"}, {"measurement": "antagonism of agonist-induced cAMP response", "setting": "P1R-delNt [1]; agonist [Aib1,3,Tyr34]hPTH(1-34)NH2", "result": "strongly inhibited"}, {"measurement": "antagonism of agonist-induced cAMP response", "setting": "P1R-delNt [1]; agonist [Aib1,3,Tyr34]hPTH(1-34)NH2, listed as Deg^1,3,Bpa^2-PTH(1-21)", "result": "antagonizes either agonist"}, {"measurement": "N versus J domain selectivity of P1R antagonist", "setting": "P1R-delNt [1]", "result": "potent J-domain selective antagonist"}, {"measurement": "N versus J domain selectivity of P1R antagonist", "setting": "P1R-delNt [1]; listed as Deg^1,3,Bpa^2-PTH(1-21)", "result": "J domain-selective antagonist"}, {"measurement": "antagonism of agonist-induced cAMP response", "setting": "wild-type P1R", "result": "antagonizes PTH(1- 14), more effectively than does PTHrP(5-36)"}, {"measurement": "shift of agonist dose-response curve", "setting": "P1R-delNt [2]", "result": "rightward and parallel shift in the agonist response curve"}, {"measurement": "shift of agonist dose-response curve", "setting": "P1R-delNt [2]; listed as [Deg^1,3,Bpa^2,M]PTH(1-21)", "result": "parallel, right-ward shift in the agonist dose-response curve"}, {"measurement": "mechanism of inhibition", "setting": "P1R-delNt [2]", "result": "competitive"}]}, {"substance": "PTH(1-34): first 34 amino acids of parathyroid hormone", "values": [{"measurement": "EC50", "setting": "P1R", "result": "~2", "unit": "nM"}]}, {"substance": "DegBpaDegGluIleGlnLeuMetHisGlnHarAlaLysTrpNH2 ([Deg][Bpa][Deg]EIQLMHQ[hArg]AKW-NH2; N-terminus assumed; SMILES CC[C@H](C)[C@H](NC(=O)[C@H](CCC(=O)O)NC(=O)C(CC)(CC)NC(=O)[C@H](Cc1ccc(C(=O)c2ccccc2)cc1)NC(=O)C(N)(CC)CC)C(=O)N[C@@H](CCC(N)=O)C(=O)N[C@@H](CC(C)C)C(=O)N[C@@H](CCSC)C(=O)N[C@@H](Cc1c[nH]cn1)C(=O)N[C@@H](CCC(N)=O)C(=O)N[C@@H](CCCCNC(=N)N)C(=O)N[C@@H](C)C(=O)N[C@@H](CCCCN)C(=O)N[C@@H](Cc1c[nH]c2ccccc12)C(N)=O)", "values": [{"measurement": "N versus J domain selectivity of P1R antagonist", "setting": "P1R-delNt [1]", "result": "behaved similarly in these assays to Deg^1,3,Bpa^2-PTH(1-21)"}, {"measurement": "shift of agonist dose-response curve", "setting": "P1R-delNt [2]", "result": "rightward and parallel shift in the agonist response curve"}, {"measurement": "shift of agonist dose-response curve", "setting": "P1R-delNt [2]; listed as [Deg^1,3,Bpa2,M]PTH(1-14)", "result": "parallel, right-ward shift in the agonist dose-response curve"}, {"measurement": "mechanism of inhibition", "setting": "P1R-delNt [2]", "result": "competitive"}]}]}
